Assay [1] addresses C-terminal recombinant ADAMTS-10 polypeptide (human) (UniProt Q9H324). Kind of assay: SPR; data not shown; N-terminal fibrillin-1 polypeptide with the C-terminal end of ADAMTS-10.
Assay [2] addresses fibrillin-1 N-terminal half (Homo sapiens) (UniProt P35555). To be noted: cited from earlier work.
The target of assay [3] is C-terminal recombinant ADAMTS-10 polypeptide (human) (UniProt Q9H324). Kind of assay: SPR; C-terminal end of ADAMTS-10 coupled to a chip; soluble C-terminal ADAMTSL-3 at 80-0 nM; 25°C, HBS-EP buffer. In general terms: Surface plasmon resonance follows binding to a sensor surface in real time, without labels.

Data on three substances can be found in publication PMC3252277.

One may read the Kd as the equilibrium constant for the complex coming apart.

Sequence of UniProt Q9H324 (Q9H324 26-1103): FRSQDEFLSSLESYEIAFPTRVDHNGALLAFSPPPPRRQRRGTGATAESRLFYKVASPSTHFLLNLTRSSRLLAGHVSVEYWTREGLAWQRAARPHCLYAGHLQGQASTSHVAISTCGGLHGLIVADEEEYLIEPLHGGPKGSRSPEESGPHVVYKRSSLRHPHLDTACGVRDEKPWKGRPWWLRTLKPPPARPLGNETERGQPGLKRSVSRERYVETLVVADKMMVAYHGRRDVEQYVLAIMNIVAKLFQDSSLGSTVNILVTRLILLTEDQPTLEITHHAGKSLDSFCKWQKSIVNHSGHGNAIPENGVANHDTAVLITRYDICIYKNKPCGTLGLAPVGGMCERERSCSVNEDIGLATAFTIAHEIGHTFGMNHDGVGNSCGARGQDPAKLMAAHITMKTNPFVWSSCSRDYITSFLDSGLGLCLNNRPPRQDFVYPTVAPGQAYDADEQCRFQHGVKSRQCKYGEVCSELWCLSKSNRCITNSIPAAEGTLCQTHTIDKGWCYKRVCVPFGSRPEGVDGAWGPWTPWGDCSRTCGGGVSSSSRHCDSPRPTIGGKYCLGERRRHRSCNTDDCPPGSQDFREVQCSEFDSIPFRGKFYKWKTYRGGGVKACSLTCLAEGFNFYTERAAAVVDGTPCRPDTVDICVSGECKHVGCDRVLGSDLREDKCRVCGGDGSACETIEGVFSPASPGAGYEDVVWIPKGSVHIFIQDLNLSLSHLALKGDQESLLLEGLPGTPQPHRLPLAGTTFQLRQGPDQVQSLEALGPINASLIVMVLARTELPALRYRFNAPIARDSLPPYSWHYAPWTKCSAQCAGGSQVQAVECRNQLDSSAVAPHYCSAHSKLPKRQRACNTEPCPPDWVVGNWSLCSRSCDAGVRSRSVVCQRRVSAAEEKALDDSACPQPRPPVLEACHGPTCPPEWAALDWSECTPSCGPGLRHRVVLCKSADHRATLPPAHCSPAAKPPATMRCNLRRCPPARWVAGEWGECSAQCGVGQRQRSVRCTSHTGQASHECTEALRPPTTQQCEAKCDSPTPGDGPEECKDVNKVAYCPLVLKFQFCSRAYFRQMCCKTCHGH
Sequence of UniProt P35555 (P35555 45-1527): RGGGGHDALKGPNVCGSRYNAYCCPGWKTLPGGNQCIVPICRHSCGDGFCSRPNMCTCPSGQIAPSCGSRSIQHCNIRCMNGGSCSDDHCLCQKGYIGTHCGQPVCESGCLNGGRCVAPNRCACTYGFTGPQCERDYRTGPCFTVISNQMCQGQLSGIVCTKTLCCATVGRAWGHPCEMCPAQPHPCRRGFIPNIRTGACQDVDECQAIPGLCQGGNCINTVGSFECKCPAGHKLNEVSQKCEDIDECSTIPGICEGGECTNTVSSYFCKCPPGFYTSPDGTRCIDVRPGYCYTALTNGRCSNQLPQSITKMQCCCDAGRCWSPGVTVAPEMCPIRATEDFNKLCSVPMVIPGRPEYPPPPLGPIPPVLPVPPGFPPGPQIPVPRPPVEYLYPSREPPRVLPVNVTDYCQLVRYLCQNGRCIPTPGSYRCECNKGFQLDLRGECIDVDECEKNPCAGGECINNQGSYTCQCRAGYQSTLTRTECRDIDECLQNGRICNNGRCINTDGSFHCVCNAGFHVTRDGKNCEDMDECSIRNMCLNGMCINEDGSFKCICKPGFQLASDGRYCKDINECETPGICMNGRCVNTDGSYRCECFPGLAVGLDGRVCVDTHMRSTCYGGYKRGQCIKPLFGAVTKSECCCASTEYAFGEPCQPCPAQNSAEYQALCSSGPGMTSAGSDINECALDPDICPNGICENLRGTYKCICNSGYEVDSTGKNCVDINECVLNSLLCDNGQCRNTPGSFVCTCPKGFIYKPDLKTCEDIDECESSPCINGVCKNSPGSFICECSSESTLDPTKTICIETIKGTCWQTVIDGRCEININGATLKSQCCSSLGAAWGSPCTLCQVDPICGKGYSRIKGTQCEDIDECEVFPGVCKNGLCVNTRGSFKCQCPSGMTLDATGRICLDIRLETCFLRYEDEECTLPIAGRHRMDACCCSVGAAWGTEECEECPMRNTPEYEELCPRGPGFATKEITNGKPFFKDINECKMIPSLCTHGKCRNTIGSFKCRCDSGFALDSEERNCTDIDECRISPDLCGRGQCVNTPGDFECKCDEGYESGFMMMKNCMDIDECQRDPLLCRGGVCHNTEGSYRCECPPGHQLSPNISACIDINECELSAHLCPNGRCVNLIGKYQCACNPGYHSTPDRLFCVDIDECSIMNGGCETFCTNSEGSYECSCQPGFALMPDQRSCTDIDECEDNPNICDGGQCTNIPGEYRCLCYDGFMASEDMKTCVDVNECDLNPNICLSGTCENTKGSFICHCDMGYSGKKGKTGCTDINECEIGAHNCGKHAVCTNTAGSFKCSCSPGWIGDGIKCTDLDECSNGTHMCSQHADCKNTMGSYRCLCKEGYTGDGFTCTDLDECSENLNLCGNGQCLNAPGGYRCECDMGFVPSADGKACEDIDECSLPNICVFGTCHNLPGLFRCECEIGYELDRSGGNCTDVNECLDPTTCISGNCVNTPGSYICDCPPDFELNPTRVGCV

As for “rF90, recombinant N-terminal half of wildtype fibrillin-1 (from UniProt P35555 25-2871) (domain or fragment)”, the Kd in assay [1] is 450 nM.
For the substance ADAMTSL-6 (from UniProt Q6ZMP0), the Kd in assay [2] was 80 nM.
Regarding “C-terminal ADAMTSL-3 polypeptide (domain or fragment)”, the Kd in assay [3] stood at 2 nM.
